Data as given in patent US20240239894A1 (AstraZeneca / MedImmune, published 2024).

T1: Human B7H4 (ECD) Fc TM 6H (human, UniProt Q7Z7D3)
T1 construct: ECD, native leader
T1 sequence (Q7Z7D3 whole entry, looked up): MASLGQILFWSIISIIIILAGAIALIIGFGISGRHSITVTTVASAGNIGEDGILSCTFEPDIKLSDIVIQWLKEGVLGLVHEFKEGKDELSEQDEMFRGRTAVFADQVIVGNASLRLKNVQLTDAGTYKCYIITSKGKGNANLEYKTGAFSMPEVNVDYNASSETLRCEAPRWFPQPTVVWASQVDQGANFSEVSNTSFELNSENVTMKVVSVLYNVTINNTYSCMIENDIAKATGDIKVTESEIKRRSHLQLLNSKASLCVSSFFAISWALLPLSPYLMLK

T2: cynomolgus monkey B7-H4 on cells (cynomolgus monkey, UniProt A0A2K5U6P5 25-282)
T2 sequence: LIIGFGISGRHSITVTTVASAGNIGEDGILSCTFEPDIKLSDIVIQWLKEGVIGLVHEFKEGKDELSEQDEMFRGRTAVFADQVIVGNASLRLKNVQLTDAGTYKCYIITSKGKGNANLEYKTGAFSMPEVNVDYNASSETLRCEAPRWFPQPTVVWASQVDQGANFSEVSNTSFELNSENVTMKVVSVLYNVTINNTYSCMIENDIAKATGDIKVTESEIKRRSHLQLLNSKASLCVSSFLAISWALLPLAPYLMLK

B1: E02-maia (ZY0EQD_E02, wildtype, Maia format human IgG1) (antibody, V domains shown)
VH: QVQLQQWGAGLLKPSETLSLTCAVYGGSFSGYYWNWIRQPPGKGLEWIGEINHSGSTSYNPSLKSRVTISVDTSKNQFSLKLSSVTAADTAVYYCARVLYNWNVDSWGQGTLVTVSS
VL: DIQMTQSPSSLSASVGDRVTITCRASQDIRNDVGWYQQKPGKAPKRLIYAASRLQSGVPSRFSGSGSGTEFTLTISSLQPEDFATYYCLQHNSYPRTFGQGTKVEIKR
notes: built here from VH 33 and the Maia constant region 41
B2: E02-GL-SG3249 (antibody, human IgG1, kappa)
heavy: QVQLQQWGAGLLKPSETLSLACTVYGGSFSGYYWNWIRQPPGKGLEWIGEINHSGSTSYNPSLKSRVTISVDTSKNQFSLKLSSVTAADTAVYYCARVLYNWNVDSWGQGTLVTVSSASTKGPSVFPLAPSSKSTSGGTAALGCLVKDYFPEPVTVSWNSGALTSGVHTFPAVLQSSGLYSLSSVVTVPSSSLGTQTYICNVNHKPSNTKVDKRVEPKSCDKTHTCPPCPAPELLGGPSCVFLFPPKPKDTLMISRTPEVTCVVVDVSHEDPEVKFNWYVDGVEVHNAKTKPREEQYNSTYRVVSVLTVLHQDWLNGKEYKCKVSNKALPAPIEKTISKAKGQPREPQVYTLPPSREEMTKNQVSLTCLVKGFYPSDIAVEWESNGQPENNYKTTPPVLDSDGSFFLYSKLTVDKSRWQQGNVFSCSVMHEALHNHYTQKSLSLSPGK
light: DIQMTQSPSSLSASVGDRVTITCRASQDIRNDVGWYQQKPGKAPKRLIYAASRLQSGVPSRFSGSGSGTEFTLTISSLQPEDFATYYCLQHNSYPRTFGQGTKVEIKRTVAAPSVFIFPPSDEQLKSGTASVVCLLNNFYPREAKVQWKVDNALQSGNSQESVTEQDSKDSTYSLSSTLTLSKADYEKHKVYACEVTHQGLSSPVTKSFNRGEC
modifications: pyrrolobenzodiazepine SG3249 conjugated at the inserted cysteine of the Maia backbone

How the values were obtained:
[1] = target: T1, Human B7H4 (ECD) Fc TM 6H; test: ELISA, absorbance 450 nm, Human B7H4 (ECD) Fc TM 6H; x axis printed as antigen concentration (nM)
[2] = target: T2, cynomolgus monkey B7-H4 on cells; test: cell-based or functional assay

| Binder | EC50 (read off the curve) [1] [nM] | IC50, cytotoxicity on cynomolgus B7-H4 transfected cells [2] [ng/mL] |
| --- | --- | --- |
| B1 | ~10 | – |
| B2 | – | 0.672 |
